{"source": "paper PMC7766085", "key": {"[1]": {"molecular_target": "AT2R, endogenous in mouse lung (mouse (endogenous in CD-1 mouse lung)) (UniProt P35374)", "sequence (P35374 whole entry)": "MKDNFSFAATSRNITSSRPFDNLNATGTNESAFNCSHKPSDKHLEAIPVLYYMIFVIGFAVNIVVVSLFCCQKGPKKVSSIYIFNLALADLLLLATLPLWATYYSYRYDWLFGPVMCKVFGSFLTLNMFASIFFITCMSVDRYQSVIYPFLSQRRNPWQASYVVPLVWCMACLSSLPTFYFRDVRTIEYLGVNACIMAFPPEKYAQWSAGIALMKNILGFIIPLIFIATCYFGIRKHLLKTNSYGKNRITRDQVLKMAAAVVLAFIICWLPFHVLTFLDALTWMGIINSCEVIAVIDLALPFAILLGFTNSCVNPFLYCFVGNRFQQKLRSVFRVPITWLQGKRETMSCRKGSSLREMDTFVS", "test": "proximity ligation; in situ PLA on fixed 30 µm lung sections of adult CD-1 mice; primary antibodies to the receptor and to ACE2, Duolink II probes anti-rabbit plus and anti-mouse minus; confocal microscopy"}, "[2]": {"molecular_target": "AT2R, endogenous in mouse lung (mouse (endogenous in CD-1 mouse lung)) (UniProt P35374)", "test": "proximity ligation; in situ PLA on fixed 30 µm lung sections of 19-day fetal CD-1 mice; primary antibodies to the receptor and to ACE2, Duolink II probes anti-rabbit plus and anti-mouse minus; confocal microscopy"}, "[3]": {"molecular_target": "AT1R, endogenous in mouse lung (mouse (endogenous in CD-1 mouse lung)) (UniProt P29754)", "sequence (P29754 whole entry)": "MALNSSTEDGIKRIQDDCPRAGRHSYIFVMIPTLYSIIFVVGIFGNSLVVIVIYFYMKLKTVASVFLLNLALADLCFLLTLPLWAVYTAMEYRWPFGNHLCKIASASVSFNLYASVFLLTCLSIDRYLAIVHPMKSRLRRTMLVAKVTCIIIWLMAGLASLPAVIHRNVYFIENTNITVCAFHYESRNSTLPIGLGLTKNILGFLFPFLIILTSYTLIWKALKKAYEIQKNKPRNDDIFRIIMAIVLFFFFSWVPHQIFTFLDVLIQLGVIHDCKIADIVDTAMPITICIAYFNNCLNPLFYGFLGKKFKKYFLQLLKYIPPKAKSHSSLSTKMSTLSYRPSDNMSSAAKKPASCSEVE", "test": "proximity ligation; in situ PLA on fixed 30 µm lung sections of adult CD-1 mice; primary antibodies to the receptor and to ACE2, Duolink II probes anti-rabbit plus and anti-mouse minus; confocal microscopy"}, "[4]": {"molecular_target": "MasR, endogenous in mouse lung (mouse (endogenous in CD-1 mouse lung)) (UniProt P30554)", "sequence (P30554 whole entry)": "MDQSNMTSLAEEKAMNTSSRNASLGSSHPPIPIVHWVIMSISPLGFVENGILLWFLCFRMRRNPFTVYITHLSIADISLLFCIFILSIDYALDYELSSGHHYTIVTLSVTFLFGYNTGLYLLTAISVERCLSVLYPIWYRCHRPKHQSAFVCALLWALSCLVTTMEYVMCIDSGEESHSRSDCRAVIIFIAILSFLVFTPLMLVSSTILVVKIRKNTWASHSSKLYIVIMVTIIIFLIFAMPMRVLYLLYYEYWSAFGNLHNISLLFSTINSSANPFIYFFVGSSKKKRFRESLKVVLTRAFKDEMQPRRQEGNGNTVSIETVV", "test": "proximity ligation; in situ PLA on fixed 30 µm lung sections of adult CD-1 mice; primary antibodies to the receptor and to ACE2, Duolink II probes anti-rabbit plus and anti-mouse minus; confocal microscopy"}, "[5]": {"molecular_target": "AT1R, endogenous in mouse lung (mouse (endogenous in CD-1 mouse lung)) (UniProt P29754)", "test": "proximity ligation; in situ PLA on fixed 30 µm lung sections of 19-day fetal CD-1 mice; primary antibodies to the receptor and to ACE2, Duolink II probes anti-rabbit plus and anti-mouse minus; confocal microscopy"}, "[6]": {"molecular_target": "MasR, endogenous in mouse lung (mouse (endogenous in CD-1 mouse lung)) (UniProt P30554)", "test": "proximity ligation; in situ PLA on fixed 30 µm lung sections of 19-day fetal CD-1 mice; primary antibodies to the receptor and to ACE2, Duolink II probes anti-rabbit plus and anti-mouse minus; confocal microscopy"}}, "data": [{"substance": "ACE2, endogenous in mouse lung (from UniProt Q8R0I0 18-805) (proximity to ACE2)", "values": [{"measurement": "percent of cells with PLA signal", "setting": "[1]", "value": "11 % of cells"}, {"measurement": "red dots per dot-containing cell (red dots/cell-expressing dots)", "setting": "[1]", "value": 6}, {"measurement": "percent of cells with PLA signal", "setting": "[2]", "value": "< 1 % of cells"}]}, {"substance": "ACE2, endogenous in mouse lung (from UniProt Q8R0I0 18-805) (enzyme)", "values": [{"measurement": "percent of cells with PLA signal", "setting": "[3]", "value": "14 % of cells"}, {"measurement": "red dots per dot-containing cell (red dots/cell-expressing dots)", "setting": "[3]", "value": 10}, {"measurement": "percent of cells with PLA signal", "setting": "[4]", "value": "8 % of cells"}, {"measurement": "red dots per dot-containing cell (red dots/cell-expressing dots)", "setting": "[4]", "value": 7}, {"measurement": "percent of cells with PLA signal", "setting": "[5]", "value": "< 1 % of cells"}, {"measurement": "percent of cells with PLA signal", "setting": "[6]", "value": "< 1 % of cells"}]}]}
